Experimental data taken from patent publication US20180188270A1, “DIAGNOSTIC TEST FOR ALZHEIMER'S DISEASE BASED ON IDENTIFICATION OF A PROTEOLYTIC PATHWAY” (Health Research, Inc., priority 2015, published 2018).

Columns and labels:
[1] = system: ERBB1 and ERBB2; experiment: Tissue levels and phosphorylation of ERBB1 and ERBB2 by IB; assay type: in vivo, mouse; details: CCl4 0.5 g/kg or hPEPD 4 mg/kg i.p., 24 h
Description: Animal studies. All animal studies were performed in accordance with protocols approved by the Institutional Animal Care and Use Committee at Roswell Park Cancer Institute. Male mice at 7-8 weeks of age were used, including wild type (WT) mice (C57BL/6), and mice deficient in FXII (C57BL/6-FXII^−/−) or FVII (C57BL/6-FVII^tTA/tTA). WT C57BL/6 mice were purchased from Taconic. C57BL/6-FXII^−/− mice and C57BL/6-FVII^tTA/tTA mice were bred in our own facility and genotyped. The breeders were kindly provided by Dr. Francis J. Castellino at University of Notre Dame. […] CCl4 was dissolved in corn oil, whereas all other substances were dissolved in PBS. The vehicle or the test substance was given to mice in 0.1 ml volume per 20 g body weight. Blood was collected from the mice at specific times by cardiac puncture at the time of sacrifice by carbon dioxide, and heart, liver and kidney were also collected from some of the mice. Blood was collected into K3 EDTA-containing tubes (Multivette 600 from Sarstedt), unless specified otherwise. All blood samples were promptly centrifuged to obtain plasma samples.
IB. […] Protein concentrations in all samples were measured by the BCA assay kit. […] The proteins were transferred to polyvinylidene fluoride membrane, probed with specific antibodies and detected using the ECL Plus Kit (Amersham) or the SuperSignal West Pico Kit (Thermo Scientific).

[2] = system: plasma coagulation factors FXII, PK, HMWK, FXI, FIX, FX, FII, FI and FVII; experiment: Changes in plasma coagulation factors in mice by IB (FI by ELISA); assay type: in vivo, mouse; details: 6 h after i.p. treatment
[3] = molecular target: T1, FVIIa (Homo sapiens, UniProt P08709); experiment: In vitro degradation by FVIIa with or without TF; assay type: biochemical; details: for hPEPD remaining (enzymatic activity): 60 min
T1 construct: purchased Haematologic Technologies HCVIIA-0031 (FVIIa); RTF-0300 (TF)
Description: (§1) To determine whether a blood coagulation factor degrades hPEPD, hPEPD at 90 nM or lower concentrations (10 or 40 nM) was incubated with solvent, 100 nM FIIa, 100 nM FXa, 10 nM FVIIa with or without 10 nM TF, or 10 nM FVII with or without 10 nM TF and/or 100 nM FIIa in PBS in a total volume of 100 μl containing 5 mM CaCl2 for desired times at RT. […] To compare the hPEPD-degrading activities of different plasma samples, 9.2 pmol of hPEPD was incubated with 100 μl of plasma from WT mice or FVII^tTA/tTA mice at RT, with or without FIIa or FXa (10 pmol), and to maximize detection of any activity, all incubations lasted for 24 h. […] To measure remaining hPEPD, the incubated samples were cleared of potential fibrin clots by centrifugation and then analyzed by SDS-PAGE and silver staining (using the LC 6070 kit from Invitrogen), IB or measurement of hPEPD enzymatic activity. hPEPD enzymatic activity was measured using glycyl-proline as a substrate (as described in Zbucka et al., Folia Histochem Cytobiol 2007; 45 Suppl 1: S181-185). The precipitates from each incubated sample were washed with PBS twice and then resuspended in 2.5% SDS (20 μper sample); each solution was mixed with 10 μl loading dye and analyzed for hPEPD by IB, using pure hPEPD as a standard and factor FXIIIa as a binding control, respectively.
All samples after incubation were resolved by SDS-PAGE and stained by silver.
Each value is mean±SD (n=3).

[4] = molecular target: T2, FIIa (Homo sapiens, UniProt P00734); experiment: hPEPD stability on incubation with FIIa; assay type: biochemical; details: hPEPD 90 nM, FIIa 100 nM
T2 construct: purchased Haematologic Technologies HCT-0020
Description: as §1, with “Measurement of in vitro degradation of hPEPD, mSRC and hAβ1-42. To determine” for “To determine”

[5] = molecular target: T3, FXa (Homo sapiens, UniProt P00742); experiment: hPEPD stability on incubation with FXa; assay type: biochemical; details: hPEPD 90 nM, FXa 100 nM
T3 construct: purchased Haematologic Technologies HCXA-0060
Description: as §1, with “Measurement of in vitro degradation of hPEPD, mSRC and hAβ1-42. To determine” for “To determine”

T1 sequence (P08709 61-212 limits assumed): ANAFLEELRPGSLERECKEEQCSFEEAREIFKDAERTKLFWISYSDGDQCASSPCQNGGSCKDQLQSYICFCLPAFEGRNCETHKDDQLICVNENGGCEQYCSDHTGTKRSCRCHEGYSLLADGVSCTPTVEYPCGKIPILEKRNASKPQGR
T1 sequence (P08709 213-466 limits assumed): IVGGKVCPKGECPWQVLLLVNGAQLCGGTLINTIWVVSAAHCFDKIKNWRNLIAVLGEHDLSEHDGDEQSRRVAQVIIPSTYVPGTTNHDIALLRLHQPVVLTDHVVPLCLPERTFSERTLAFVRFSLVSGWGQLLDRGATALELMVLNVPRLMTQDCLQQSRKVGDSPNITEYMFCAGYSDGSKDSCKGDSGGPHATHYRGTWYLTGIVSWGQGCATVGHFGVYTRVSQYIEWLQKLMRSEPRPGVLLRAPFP
T1 sequence (P13726 33-295 partner): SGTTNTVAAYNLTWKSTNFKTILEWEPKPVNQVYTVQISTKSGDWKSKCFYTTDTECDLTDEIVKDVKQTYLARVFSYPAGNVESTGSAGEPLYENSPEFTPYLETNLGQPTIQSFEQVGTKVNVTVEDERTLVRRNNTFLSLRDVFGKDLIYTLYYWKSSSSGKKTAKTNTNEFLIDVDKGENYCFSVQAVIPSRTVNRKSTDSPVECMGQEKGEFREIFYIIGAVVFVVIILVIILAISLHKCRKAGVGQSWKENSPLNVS
T3 sequence (P00742 41-179 limits assumed): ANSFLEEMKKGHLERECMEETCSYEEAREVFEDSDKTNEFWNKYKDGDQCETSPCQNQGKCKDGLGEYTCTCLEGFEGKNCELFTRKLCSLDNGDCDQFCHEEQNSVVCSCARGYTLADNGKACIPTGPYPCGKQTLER
T3 sequence (P00742 235-488 limits assumed): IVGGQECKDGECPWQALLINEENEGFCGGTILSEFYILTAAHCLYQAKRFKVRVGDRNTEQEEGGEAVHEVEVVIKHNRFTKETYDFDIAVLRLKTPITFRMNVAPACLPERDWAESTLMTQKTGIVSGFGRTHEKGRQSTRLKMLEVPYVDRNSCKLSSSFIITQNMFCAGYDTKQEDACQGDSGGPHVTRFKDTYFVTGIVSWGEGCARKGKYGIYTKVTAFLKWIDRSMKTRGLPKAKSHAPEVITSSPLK

- degradation by FVIIa in the absence of TF ([3]; FVIIa 10 nM, no TF): degraded hPEPD
- effect of FIIa on hPEPD stability [4]: had no effect on hPEPD stability
- effect of FXa on hPEPD stability [5]: had no effect on hPEPD stability
B1: hPEPD: recombinant human prolidase (PEPD), 6xHis tagged to the carboxy terminus (protein, UniProt P12955 2-493, looked up)
Xaa-Pro dipeptidase: AAATGPSFWLGNETLKVPLALFALNRQRLCERLRKNPAVQAGSIVVLQGGEETQRYCTDTGVLFRQESFFHWAFGVTEPGCYGVIDVDTGKSTLFVPRLPASHATWMGKIHSKEHFKEKYAVDDVQYVDEIASVLTSQKPSVLLTLRGVNTDSGSVCREASFDGISKFEVNNTILHPEIVECRVFKTDMELEVLRYTNKISSEAHREVMKAVKVGMKEYELESLFEHYCYSRGGMRHSSYTCICGSGENSAVLHYGHAGAPNDRTIQNGDMCLFDMGGEYYCFASDITCSFPANGKFTADQKAVYEAVLRSSRAVMGAMKPGVWWPDMHRLADRIHLEELAHMGILSGSVDAMVQAHLGAVFMPHGLGHFLGIDVHDVGGYPEGVERIDEPGLRSLRTARHLQPGMVLTVEPGIYFIDHLLDEALADPARASFLNREVLQRFRGFGGVRIEEDVVVTDSGIELLTCVPRTVEEIEACMAGCDKAFTPFSGPK
modifications: C-terminal 6xHis tag
notes: recombinant human prolidase (PEPD), 6xHis tagged to the carboxy terminus
- changes in ERBB1/ERBB2 tyrosine phosphorylation and receptor depletion in heart, kidney and liver, WT mice compared to FXII−/− mice [1]: reduced changes in receptor tyrosine phosphorylation
- activation/cleavage of plasma coagulation factors ([2]; FXII−/− mice): no activation of HMWK, FXI, PK and FIX, but slight activation of FX, FII and FVII
- activation/cleavage of plasma coagulation factors ([2]; WT mice): caused cleavage or activation of many coagulation factors
- proteolysis/fragmentation by FVIIa plus TF ([3]; FVIIa 10 nM plus TF 10 nM, CaCl2-containing PBS, RT): caused rapid and extensive hPEPD proteolysis
- hPEPD remaining (enzymatic activity) ([3]; hPEPD 10 nM, FVIIa 10 nM plus TF 10 nM, RT): 35.9%
- hPEPD remaining (enzymatic activity) ([3]; hPEPD 40 nM, FVIIa 10 nM plus TF 10 nM, RT): 46.3%
- hPEPD remaining (enzymatic activity) ([3]; hPEPD 90 nM, FVIIa 10 nM plus TF 10 nM, RT): 52.4%
